T1: FcγRIIa H (FcγRIIa type H, His at position 131), extracellular domain with C-terminal His tag (human, UniProt P12318 34-217)
T1 construct: extracellular domain; Expressed in FreeStyle293 cells; analyte in the Biacore assay; also called FcgRIIa H; 2aH; not shown: His tag at the C terminus
T1 sequence (looked up): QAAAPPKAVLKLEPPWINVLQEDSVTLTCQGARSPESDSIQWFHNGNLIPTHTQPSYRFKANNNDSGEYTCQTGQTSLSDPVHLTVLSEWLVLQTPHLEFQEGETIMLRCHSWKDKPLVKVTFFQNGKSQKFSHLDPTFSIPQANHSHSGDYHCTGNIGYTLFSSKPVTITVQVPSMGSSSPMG

T2: FcγRIIa R (FcγRIIa, allotype R, Arg at position 131), extracellular domain with C-terminal His tag (human, UniProt P12318 34-217)
T2 construct: extracellular domain; soluble receptor used as Biacore analyte; also called 2aR; FcgRIIa R
T2 sequence (looked up): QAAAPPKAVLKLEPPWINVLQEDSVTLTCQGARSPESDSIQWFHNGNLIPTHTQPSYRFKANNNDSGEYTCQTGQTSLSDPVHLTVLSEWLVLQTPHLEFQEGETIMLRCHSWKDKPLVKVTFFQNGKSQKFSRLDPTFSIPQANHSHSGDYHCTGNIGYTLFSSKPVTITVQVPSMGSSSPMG

T3: FcγRIIb, extracellular domain with C-terminal His tag (human, UniProt P31994 43-217)
T3 construct: extracellular domain; soluble receptor used as Biacore analyte; also called 2b; FcgRIIb
T3 sequence (looked up): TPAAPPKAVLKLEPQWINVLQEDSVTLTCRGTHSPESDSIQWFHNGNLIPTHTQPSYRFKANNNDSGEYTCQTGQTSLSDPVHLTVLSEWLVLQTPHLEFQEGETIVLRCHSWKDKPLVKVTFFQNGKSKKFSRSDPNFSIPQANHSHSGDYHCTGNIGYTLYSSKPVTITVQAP

B1: GpH7-A5/GpH7-B3 variant A327_12R/GpL16-k0 (antibody, human IgG1, kappa)
heavy 1: not shown
heavy 2: not shown
light: DIVMTQSPLSLPVTPGEPASISCQASESLVHSNRNTYLHWYLQKPGQSPQLLIYKVSNRFSGVPDRFSGSGSGTDFTLKISRVEAEDVGVYYCSQNTHVPPTFGQGTKVEIERTVAAPSVFIFPPSDEQLKSGTASVVCLLNNFYPREAKVQWKVDNALQSGNSQESVTEQDSKDSTYSLSSTLTLSKADYEKHKVYACEVTHQGLSSPVTKSFNRGEC
notes: He Ab; IgG1; mutation in one H chain only; also called He Ab
B2: GpH7-A5/GpH7-B3 variant L328_11K/GpL16-k0 (antibody, human IgG1, kappa)
heavy 1: not shown
heavy 2: not shown
light: DIVMTQSPLSLPVTPGEPASISCQASESLVHSNRNTYLHWYLQKPGQSPQLLIYKVSNRFSGVPDRFSGSGSGTDFTLKISRVEAEDVGVYYCSQNTHVPPTFGQGTKVEIERTVAAPSVFIFPPSDEQLKSGTASVVCLLNNFYPREAKVQWKVDNALQSGNSQESVTEQDSKDSTYSLSSTLTLSKADYEKHKVYACEVTHQGLSSPVTKSFNRGEC
notes: as for B1
B3: GpH7-A5/GpH7-B3 variant L328_12R/GpL16-k0 (antibody, human IgG1, kappa)
heavy 1: not shown
heavy 2: not shown
light: DIVMTQSPLSLPVTPGEPASISCQASESLVHSNRNTYLHWYLQKPGQSPQLLIYKVSNRFSGVPDRFSGSGSGTDFTLKISRVEAEDVGVYYCSQNTHVPPTFGQGTKVEIERTVAAPSVFIFPPSDEQLKSGTASVVCLLNNFYPREAKVQWKVDNALQSGNSQESVTEQDSKDSTYSLSSTLTLSKADYEKHKVYACEVTHQGLSSPVTKSFNRGEC
notes: as for B1
B4: heterodimerized antibody GpH7-A5/GpH7-B3 variant S267_08L/GpL16-k0 (antibody, human IgG1, kappa)
heavy 1: not shown
heavy 2: not shown
light: DIVMTQSPLSLPVTPGEPASISCQASESLVHSNRNTYLHWYLQKPGQSPQLLIYKVSNRFSGVPDRFSGSGSGTDFTLKISRVEAEDVGVYYCSQNTHVPPTFGQGTKVEIERTVAAPSVFIFPPSDEQLKSGTASVVCLLNNFYPREAKVQWKVDNALQSGNSQESVTEQDSKDSTYSLSSTLTLSKADYEKHKVYACEVTHQGLSSPVTKSFNRGEC
notes: He Ab: anti-glypican-3 IgG1, alteration in one H chain only; also called He Ab
B5: heterodimerized antibody GpH7-A5/GpH7-B3 variant A327_07I/GpL16-k0 (antibody, human IgG1, kappa)
heavy 1: not shown
heavy 2: not shown
light: DIVMTQSPLSLPVTPGEPASISCQASESLVHSNRNTYLHWYLQKPGQSPQLLIYKVSNRFSGVPDRFSGSGSGTDFTLKISRVEAEDVGVYYCSQNTHVPPTFGQGTKVEIERTVAAPSVFIFPPSDEQLKSGTASVVCLLNNFYPREAKVQWKVDNALQSGNSQESVTEQDSKDSTYSLSSTLTLSKADYEKHKVYACEVTHQGLSSPVTKSFNRGEC
notes: as for B4
B6: heterodimerized antibody GpH7-A5/GpH7-B3 variant A327_09D/GpL16-k0 (antibody, human IgG1, kappa)
heavy 1: not shown
heavy 2: not shown
light: DIVMTQSPLSLPVTPGEPASISCQASESLVHSNRNTYLHWYLQKPGQSPQLLIYKVSNRFSGVPDRFSGSGSGTDFTLKISRVEAEDVGVYYCSQNTHVPPTFGQGTKVEIERTVAAPSVFIFPPSDEQLKSGTASVVCLLNNFYPREAKVQWKVDNALQSGNSQESVTEQDSKDSTYSLSSTLTLSKADYEKHKVYACEVTHQGLSSPVTKSFNRGEC
notes: as for B4
B7: heterodimerized antibody GpH7-A5/GpH7-B3 variant A327_10E/GpL16-k0 (antibody, human IgG1, kappa)
heavy 1: not shown
heavy 2: not shown
light: DIVMTQSPLSLPVTPGEPASISCQASESLVHSNRNTYLHWYLQKPGQSPQLLIYKVSNRFSGVPDRFSGSGSGTDFTLKISRVEAEDVGVYYCSQNTHVPPTFGQGTKVEIERTVAAPSVFIFPPSDEQLKSGTASVVCLLNNFYPREAKVQWKVDNALQSGNSQESVTEQDSKDSTYSLSSTLTLSKADYEKHKVYACEVTHQGLSSPVTKSFNRGEC
notes: as for B4
B8: heterodimerized antibody GpH7-A5/GpH7-B3 variant A327_12R/GpL16-k0 (antibody, human IgG1, kappa)
heavy 1: not shown
heavy 2: not shown
light: DIVMTQSPLSLPVTPGEPASISCQASESLVHSNRNTYLHWYLQKPGQSPQLLIYKVSNRFSGVPDRFSGSGSGTDFTLKISRVEAEDVGVYYCSQNTHVPPTFGQGTKVEIERTVAAPSVFIFPPSDEQLKSGTASVVCLLNNFYPREAKVQWKVDNALQSGNSQESVTEQDSKDSTYSLSSTLTLSKADYEKHKVYACEVTHQGLSSPVTKSFNRGEC
notes: as for B4
B9: heterodimerized antibody GpH7-A5/GpH7-B3 variant A327_18N/GpL16-k0 (antibody, human IgG1, kappa)
heavy 1: not shown
heavy 2: not shown
light: DIVMTQSPLSLPVTPGEPASISCQASESLVHSNRNTYLHWYLQKPGQSPQLLIYKVSNRFSGVPDRFSGSGSGTDFTLKISRVEAEDVGVYYCSQNTHVPPTFGQGTKVEIERTVAAPSVFIFPPSDEQLKSGTASVVCLLNNFYPREAKVQWKVDNALQSGNSQESVTEQDSKDSTYSLSSTLTLSKADYEKHKVYACEVTHQGLSSPVTKSFNRGEC
notes: as for B4
B10: heterodimerized antibody GpH7-A5/GpH7-B3 variant D270_05P/GpL16-k0 (antibody, human IgG1, kappa)
heavy 1: not shown
heavy 2: not shown
light: DIVMTQSPLSLPVTPGEPASISCQASESLVHSNRNTYLHWYLQKPGQSPQLLIYKVSNRFSGVPDRFSGSGSGTDFTLKISRVEAEDVGVYYCSQNTHVPPTFGQGTKVEIERTVAAPSVFIFPPSDEQLKSGTASVVCLLNNFYPREAKVQWKVDNALQSGNSQESVTEQDSKDSTYSLSSTLTLSKADYEKHKVYACEVTHQGLSSPVTKSFNRGEC
notes: as for B4
B11: heterodimerized antibody GpH7-A5/GpH7-B3 variant G236_09D/GpL16-k0 (antibody, human IgG1, kappa)
heavy 1: not shown
heavy 2: not shown
light: DIVMTQSPLSLPVTPGEPASISCQASESLVHSNRNTYLHWYLQKPGQSPQLLIYKVSNRFSGVPDRFSGSGSGTDFTLKISRVEAEDVGVYYCSQNTHVPPTFGQGTKVEIERTVAAPSVFIFPPSDEQLKSGTASVVCLLNNFYPREAKVQWKVDNALQSGNSQESVTEQDSKDSTYSLSSTLTLSKADYEKHKVYACEVTHQGLSSPVTKSFNRGEC
notes: as for B4
B12: heterodimerized antibody GpH7-A5/GpH7-B3 variant L328_11K/GpL16-k0 (antibody, human IgG1, kappa)
heavy 1: not shown
heavy 2: not shown
light: DIVMTQSPLSLPVTPGEPASISCQASESLVHSNRNTYLHWYLQKPGQSPQLLIYKVSNRFSGVPDRFSGSGSGTDFTLKISRVEAEDVGVYYCSQNTHVPPTFGQGTKVEIERTVAAPSVFIFPPSDEQLKSGTASVVCLLNNFYPREAKVQWKVDNALQSGNSQESVTEQDSKDSTYSLSSTLTLSKADYEKHKVYACEVTHQGLSSPVTKSFNRGEC
notes: as for B4
B13: heterodimerized antibody GpH7-A5/GpH7-B3 variant L328_12R/GpL16-k0 (antibody, human IgG1, kappa)
heavy 1: not shown
heavy 2: not shown
light: DIVMTQSPLSLPVTPGEPASISCQASESLVHSNRNTYLHWYLQKPGQSPQLLIYKVSNRFSGVPDRFSGSGSGTDFTLKISRVEAEDVGVYYCSQNTHVPPTFGQGTKVEIERTVAAPSVFIFPPSDEQLKSGTASVVCLLNNFYPREAKVQWKVDNALQSGNSQESVTEQDSKDSTYSLSSTLTLSKADYEKHKVYACEVTHQGLSSPVTKSFNRGEC
notes: as for B4
B14: GpH7-A5/GpH7-B3 variant Y300_20W/GpL16-k0 (antibody, human IgG1, kappa)
heavy 1: not shown
heavy 2: not shown
light: DIVMTQSPLSLPVTPGEPASISCQASESLVHSNRNTYLHWYLQKPGQSPQLLIYKVSNRFSGVPDRFSGSGSGTDFTLKISRVEAEDVGVYYCSQNTHVPPTFGQGTKVEIERTVAAPSVFIFPPSDEQLKSGTASVVCLLNNFYPREAKVQWKVDNALQSGNSQESVTEQDSKDSTYSLSSTLTLSKADYEKHKVYACEVTHQGLSSPVTKSFNRGEC
notes: heterodimerized IgG1; mutation in one H chain only; also called He Ab

Assays:
[1] = target: T1, FcγRIIa H (FcγRIIa type H, His at …); assay: SPR Biacore; He/Con_2aH divided by He/Con_2b (reference: FcgRIIb)
[2] = target: T1, FcγRIIa H (FcγRIIa type H, His at …); assay: SPR Biacore, captured antibody, FcgR analyte; GpH7-A5/GpH7-B3/GpL16-k0 = 100
[3] = target: T2, FcγRIIa R (FcγRIIa, allotype R, Arg at …); assay: Biacore SPR; He/Con_2aR divided by He/Con_2b (FcγRIIb)
Description: (§1) The heterodimerized antibodies He Abs in which one of the H chains was introduced with an alteration were assayed for their binding activities to each activating FcγR and inhibitory FcγR according to the method described in Example 4. […] The activating FcγRs in FIGS. 26, 27, 28, and 29 are FcγRIa, FcγRIIa (R), FcγRIIa (H), and FcγRIIIa, respectively.
(§2) Analysis of interaction between objective antibody and the FcγR was carried out using Biacore T100 (GE Healthcare). HBS-EP+ (GE Healthcare) was used as the running buffer, and the measurement temperature was set to 25° C. Chips produced by immobilizing the antigen peptide by the amine coupling method to a Series S Sencor Chip CM5 (GE Healthcare), or alternatively, chips produced by allowing preliminarily biotinylated antigen peptides to interact with and immobilize onto a Series S Sensor Chip SA (certified) (GE Healthcare) were used. Antibodies of interest were captured onto an antigen peptide-immobilized chip, and allowed to interact to each FcγR diluted with running buffer. To regenerate and repeatedly use the chip, the antibodies captured on the chip were washed off by reacting 10 mM glycine-HCl, pH 1.5.

[4] = target: T2, FcγRIIa R (FcγRIIa, allotype R, Arg at …); assay: Biacore SPR; binding relative to GpH7-A5/GpH7-B3/GpL16-k0 (=100)
Description: as §1, §2

[5] = target: T3, FcγRIIb, extracellular domain with …; assay: as above
Description: as §1, §2

FcγRIa = target: T4, FcγRIa (human, UniProt P12314 16-292); assay: SPR (Biacore), antibody captured on antigen peptide chip, FcγRIa as analyte; relative binding amount
T4 construct: extracellular domain; also called FcgRI; CD64; not shown: C-terminal His tag
T4 sequence (P12314 16-292): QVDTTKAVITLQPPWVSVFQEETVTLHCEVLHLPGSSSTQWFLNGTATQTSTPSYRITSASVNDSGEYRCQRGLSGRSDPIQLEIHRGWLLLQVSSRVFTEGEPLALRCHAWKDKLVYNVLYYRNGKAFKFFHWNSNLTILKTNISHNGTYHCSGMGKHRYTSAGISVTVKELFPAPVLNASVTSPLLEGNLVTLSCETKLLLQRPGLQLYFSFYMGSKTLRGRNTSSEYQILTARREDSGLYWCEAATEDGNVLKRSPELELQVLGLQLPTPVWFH
Description: as §2

Row | He_2aH/2b (IIaH/IIb) [1] | He/Con_2aH [2] | IIaR/IIb (He_2aR/2b) [3] | He/Con_2aR (IIaR binding) [4] | He/Con_2b (IIb binding) [5] | He/Con_1a (FcγRIa) | Binder
1 | 1.26 | 11.3 % of HeCon Ab | – | – | – | – | B1
2 | 4.27 | 32.2 % of HeCon Ab | – | – | – | – | B2
3 | 4.6 | 42.5 % of HeCon Ab | – | – | – | – | B3
4 | – | – | 0.66 | 72.1 % of control | 109 % of control | – | B4
5 | – | – | 0.77 | 98 % of control | 127 % of control | – | B5
6 | – | – | 0.72 | 124 % of control | 172 % of control | – | B6
7 | – | – | 0.78 | 110 % of control | 140 % of control | – | B7
8 | – | – | 0.67 | 6 % of control | – | – | B8
9 | – | – | 0.79 | 88.9 % of control | 113 % of control | – | B9
10 | – | – | 0.54 | 7.5 % of control | 13.9 % of control | – | B10
11 | – | – | 0.64 | 106 % of control | 167 % of control | – | B11
12 | – | – | 0.33 | 2.5 % of control | – | – | B12
13 | – | – | 0.54 | 5 % of control | – | – | B13
14 | – | – | – | – | – | 112 % of control (GpH7-A5/GpH7-B3/GpL16-k0 = 100) | B14

Reference: patent US20180155451A1 (published 2018)
